{"source": "patent US8021646B2", "about": "“Compositions and methods for magnetic resonance imaging contrast agents” (Northwestern University, priority 2006, dated 2011)", "experiment": "Solubility of protein polymers", "assay_type": "physicochemical", "from_the_text": "In order to both increase solubility of the protein backbone in organic solvents and to include a better enzymatic transglutaminase substrate for conjugation to chelators, a phenylalanine amino acid (F) will be added to the random coil backbone, resulting in GFKAGTGSA (SEQ ID NO: 4). It is contemplated that this protein structure will not form a particular secondary structure, behaving as a random coil in an aqueous solution. As indicated by the monomer sequence, the lysines are spaced every nine amino acids, which is still an optimal interval for a high concentration of Gd chelators, but still allowing enough room to prevent steric hindrance. […] It is contemplated that proteins including various amounts of leucines, a hydrophobic residue that is high on the hydropathy scale, provides novel protein polymers useful in the present invention that are both water and organo-soluble.\nHowever, a protein soluble in organic solvents would allow coupling in N-methyl-pyrrolidone (NMP) using a peptide coupling agent such as Bromo-tris-pyrrolidinophosphoniumhexafluorophosphate (PyBroP) or 2-(IH-7-Azabenzotriazol-1-yl)-1,1,3,3-tetramethyluroniumhexafluorophosphate Methanaminium (HATU) in diisopropylethylamine (DIEA). Two equivalents of the chelator and at least 2:1 equivalents of the peptide-coupling agent will be used for each lysine site. […]", "note": "No end group written: not given here.", "data": [{"substance": "GFKAGTGSA: protein polymer with monomer GFKAGTGSA (SEQ ID NO: 4), phenylalanine added to the random coil backbone (also: repeated monomer polymer)", "values": [{"measurement": "solubility in water", "value": "only soluble in water at high pH"}, {"measurement": "solubility in organics", "setting": "organic solvents", "value": "not soluble in organics"}]}]}
